Results on two substances are retold here after US8058228B2, “Leptin peptide antagonists” (Boston Biomedical Research Institute, priority 2004, dated 2011).

The test concerns the target T1, IL-1R tl (Homo sapiens, UniProt P14778).
T1 construct: endogenous in cells; host or cells: Ishikawa cells
T1 sequence (P14778 18-569): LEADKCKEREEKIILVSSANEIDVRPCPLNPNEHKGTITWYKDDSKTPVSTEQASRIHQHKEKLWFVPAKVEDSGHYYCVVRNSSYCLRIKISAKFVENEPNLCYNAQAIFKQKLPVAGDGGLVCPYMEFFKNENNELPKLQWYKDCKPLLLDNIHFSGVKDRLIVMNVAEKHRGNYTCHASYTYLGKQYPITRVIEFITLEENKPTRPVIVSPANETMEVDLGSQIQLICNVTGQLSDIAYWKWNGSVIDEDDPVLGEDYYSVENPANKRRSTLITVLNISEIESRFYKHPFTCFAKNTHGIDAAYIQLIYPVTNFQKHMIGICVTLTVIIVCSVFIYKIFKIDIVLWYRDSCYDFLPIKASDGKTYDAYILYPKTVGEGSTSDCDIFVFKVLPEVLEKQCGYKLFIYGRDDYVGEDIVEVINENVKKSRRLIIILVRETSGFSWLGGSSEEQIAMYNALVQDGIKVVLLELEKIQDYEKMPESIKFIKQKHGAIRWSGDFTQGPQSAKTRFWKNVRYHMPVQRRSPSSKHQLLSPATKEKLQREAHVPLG
Put plainly: IL-1β and IL-1R tl inhibitors: effects on LIF-R levels in Ishikawa cells (Western blot). It counts as cell-based. As to the method:
Primary human endometrial cells (ESC and EEC) were cultured for 5-9 days in DMEM-F12 medium containing 5% fetal bovine serum (FBS), 5 μg/ml insulin, 1% amphopthericin B, 100 μg/ml streptomycin and 100 U/ml penicillin until they were 80% confluent. Two types of endometrial epithelial cell lines, HES (originally derived from a benign proliferative endometrium) and Ishikawa (human endometrial epithelial adenocarcinoma, ECACC 9832301, Wiltshire, England) were cultured under the same conditions described above. The cells were washed twice with 100 mM phosphate saline buffer (PBS), pH 7.2 and cultured for additional 2 days in the same medium but without FBS (basal medium). Cells were washed as described before and cultured in basal medium containing leptin (0, 3, 10 or 62 nM) or IL-1β (0.6, 3 and 10 nM). […]
Endometrial cells were washed with ice-cold PBS and lysed by homogenization on ice with lysis buffer A [[…] Tris, pH 7.4, containing 137 nM NaCl, 2 mM EDTA, 10% glycerol, 50 mM β-glycerophosphate, 1% Nonidet P-40 and a mixture of proteases and phosphatase inhibitors composed of 100 μM antipain, 0.1 mg/ml trypsin inhibitor, protease inhibitor cocktail 1:50 (Sigma), 50 nM NaF, 2 mM phenyl-methylsulfonyl fluoride, and 2 mM sodium orthovanadate]. […] Protein concentrations were determined using the Bradford protein assay (BioRad Laboratories Inc., Hercules, Calif.). […]
Background: A western blot detects proteins with antibodies after separation by electrophoresis.

Consider “IL-1Ra: human recombinant IL-1 receptor antagonist (R&D Systems), inhibitor of IL-1R tl”, for which the “effect on leptin-induced increase in LIF-R levels” value (IL-1Ra 1000 pg/ml or anti IL-1R tl antibody 20 μg/ml) is on record as “partially blocked”.

“IL-1β: human recombinant IL-1β (R&D Systems)”: the “LIF-R levels after IL-1β” value (IL-1β 3 and 10 nM, dose dependent) is “increased the levels of LIF-R”.
